Two molecules from PMC7822688, “W196 and the β-Hairpin Motif Modulate the Redox Switch of Conformation and the Biomolecular Interaction Network of the Apoptosis-Inducing Factor” (Oxidative Medicine and Cellular Longevity, 2021) can be followed below.

Entries after “also recorded” stand apart in the source; their conditions may differ. Read-outs that look alike come from different tables or passages of the source.

A short description of series [1]: Steady-state DCPIP-dependent diaphorase (NADH oxidase) activity. The format is biochemical. The conditions noted are these: steady-state, NADH donor, 95 μM DCPIP acceptor, 25°C, 50 mM potassium phosphate, pH 7.4 (table footnote). The text has this: […] When saturation profiles on the pyridine nucleotide concentration were observed, kinetic constants were estimated by fitting initial reaction rates at different coenzyme concentrations to the Michaelis-Menten equation: (2) ν/e=kcat NADH/KmNADH+NADH,ν/e=kcat/KmNADHNADH/1+kcat/KmNADHNADH/kcat, where v stands for the initial velocity, e is the enzyme concentration, Km^NADH is the Michaelis constant for the enzyme-NADH complex, kcat is the turnover number of the enzyme, and kcat/Km^NADH is the enzyme catalytic efficiency.

Series [2] can be described thus: Stopped-flow reduction of hAIF∆1-101ox by NADH (hydride transfer). It counts as biochemical. The conditions noted are these: pre-steady-state, 25°C, pH 7.4. As for the experimental part:
A SX18.MV stopped-flow spectrophotometer (Applied Photophysics Ltd., Surrey, UK), interfaced with the ProData-SX software and a photodiode array detector, was used to investigate the fast kinetic reduction of the hAIF variants by the NADH coenzyme. Samples of ~10 μM hAIF∆1-101ox were mixed with increasing concentrations of NADH (0.03-10 mM) under aerobic conditions in 50 mM potassium phosphate, pH 7.4, at 25 °C. The enzyme and NADH concentrations are the final ones obtained after mixing equal volumes of substrate and enzyme. Observed rate constants for the hydride transfer (HT) event (kobs) were calculated by global analysis and numerical integration methods (simultaneously using all spectral data in the 400-800 nm region along time evolution). A single-step model (A→B) best fitted to describe the overall reaction at all NADH concentrations assayed. Averaged kobs values at each NADH concentration were then fitted to the equation that describes the formation of an enzyme:substrate complex prior to the HT event: (3) kobs=kHTNADH/KdNADH+NADH+krev, where kHT is the limiting rate constant for HT from the pyridine nucleotide coenzyme to the FAD cofactor of hAIF, Kd^NADH is the dissociation constant of the transient hAIF∆1-101ox:NADH complex, and krev is the reaction constant for a potential overall reverse process.

A short description of series [3]: Stopped-flow CTC formation on mixing photoreduced hAIF∆1-101 with NAD+. The format is biochemical. The following applies: anaerobic, 25°C, pH 7.4. As for the experimental part:
Stopped-flow spectrophotometry was also used to evaluate the rate constants of CTC formation when mixing photoreduced hAIF∆1-101 (hAIF∆1-101phrd) with increasing concentrations of NAD^+ (0.125-5 mM) under anaerobic conditions. hAIF∆1-101phrd samples were obtained by photoreduction in the presence of 5 μM methyl viologen, 3 μM 5-deazariboflavin, and 20 mM EDTA. The assays were performed at 25 °C in 50 mM potassium phosphate, pH 7.4, under anaerobic conditions (obtained by several cycles of vacuum application and bubbling with O2 free argon). Data were global fitted to a single step model (A→B), and kobs were determined at the different NAD^+ concentrations assayed. These values were then fitted to the equation that describes the formation of a transient hAIF∆1-101phrd:NAD^+ complex prior to the CTC stabilization: (4) kobs=kCTCNAD^+/KdNAD++NAD^+, in which kCTC is the limiting rate constant for the rearrangement of the encounter complex to form the CTC, and Kd^NAD+ is the dissociation constant for the mentioned transient encounter complex.

Series [4] is described as follows: Reactivity of the CTC towards molecular oxygen (CTC half-life). It counts as biochemical. The conditions noted are these: 25°C, air saturated 50 mM potassium phosphate, pH 7.4. On the procedure:
The reactivity of the CTC towards molecular oxygen was monitored by full reduction of hAIF∆1-101 samples with NADH (1.5-fold the concentration of the protein) in 50 mM phosphate buffer, pH 7.4, and following their reoxidation in a Cary 100 spectrophotometer (Agilent, Santa Clara, CA). Absorption spectra were recorded at 25 °C until full oxidation of the flavin cofactor was achieved. For each time, the percent remaining of CTC versus reoxidation by molecular oxygen was estimated as ΔAt/ΔAmax, where ΔAmax is the difference between the minimum and the maximum absorbance at 700 nm, and ΔAt is the difference of each value at 700nm minus the minimum absorbance at 700 nm. The CTC half-life is the time at which 50% of CTC still remains.

Series [5] has as its target T1, CHCHD4 (Homo sapiens, UniProt Q8N4Q1).
T1 construct: His6 (N); made in house; host or cells: E. coli C41 (DE3)
T1 sequence (Q8N4Q1 1-142): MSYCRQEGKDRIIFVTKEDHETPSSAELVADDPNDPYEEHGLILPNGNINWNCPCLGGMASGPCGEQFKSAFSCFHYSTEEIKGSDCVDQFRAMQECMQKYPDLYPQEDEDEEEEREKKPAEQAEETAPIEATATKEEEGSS
Nature of the series: ITC binary interaction with CHCHD4. The format is binding. The following applies: 25°C, pH 7.4. As for the experimental part: (§1) ITC assays were carried out using an Auto-iTC200 (MicroCal, Malvern-Panalytical, Malvern, UK) thermostated at 25 °C. Typically, […] protein partner and dsDNA samples—prepared as described below—were used to titrate ~10 μM hAIF∆1-101 variants. All solutions were degassed at 15°C for 1 min before each assay. A sequence of 2 μL injections of titrant solution every 150 s was programmed, and the stirring speed was set to 750 rpm. The association constant (Ka), the enthalpy of binding (ΔH), and the binding stoichiometry (N) were estimated through nonlinear least-squares regression of the experimental data employing a single-ligand binding site model implemented in Origin 7.0 (OriginLab, Northampton, MA). The dissociation constant (Kd), the free energy change (ΔG), and the entropy change (ΔS) were obtained from basic thermodynamic relationships.

For series [6], the target named is T2, CypA (Homo sapiens, UniProt P62937).
T2 construct: His6 (N); made in house; host or cells: E. coli C41 (DE3)
T2 sequence (P62937 whole entry): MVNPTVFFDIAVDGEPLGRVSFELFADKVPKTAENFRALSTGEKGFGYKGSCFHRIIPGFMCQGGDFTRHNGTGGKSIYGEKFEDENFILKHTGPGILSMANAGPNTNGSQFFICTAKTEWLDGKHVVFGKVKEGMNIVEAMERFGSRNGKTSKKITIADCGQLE
Nature of the series: ITC binary interaction with CypA. It counts as binding. The following applies: oxidized hAIF∆1-101 titrated with CypA, 25°C, pH 7.4. On the procedure: as §1

In series [7] the target is dsDNA. Nature of the series: ITC binary interaction with dsDNA. It counts as binding. The conditions noted are these: oxidized hAIF∆1-101 titrated with 15-bp dsDNA, 25°C, pH 7.4. As for the experimental part:
as §1
Since hAIF binds DNA unspecifically, a 0.5 mM dsDNA sample was prepared from 1 mM solutions of HPLC-purified forward and a reverse complementary 15-bp oligonucleotides (5′- GGT TAG TTA TGC GCG -3′; randomly designed) synthetized by Integrated DNA Technologies. The pair of oligonucleotides was mixed at an equimolar ratio and annealed by heating 1 min at 99°C and performing a 3 h temperature scanning from 95 to 25°C, decreasing 1°C each 3 min. 0.5 mM dsDNA stock solutions were obtained.

Series [8] concerns the target T3, W196A hAIF_(Δ1-101) (human, UniProt O95831 102-613, W196A).
T3 construct: FAD holoprotein; 'ox' oxidized, 'CTC' after reduction with NADH; The His6 tag is called cleavable; whether it was cleaved is told only in the supplementary materials; also called W196Aox; source: E. coli C41 (DE3), purified to homogeneity (protocol in the supplementary materials)
Nature of the series: ITC; Auto-iTC200, 25°C, 50 mM potassium phosphate, pH 7.4; 10-20 μM protein partner titrated into ~10 μM oxidized hAIF_(∆1-101) variant, without NADH; single-ligand binding site model. The following applies: both partners purified. In general terms: ITC needs no label: the signal is the heat of the interaction.

Series [9] addresses T4, WT human apoptosis-inducing factor hAIF_(Δ1-101) (human, UniProt O95831 102-613).
T4 construct: FAD holoprotein. 'ox' is the oxidized protein; 'CTC' is the same protein reduced by an excess of NADH (FADH-/NAD+ charge transfer complex); The His6 tag is called cleavable; whether it was cleaved is told only in the supplementary materials; also called WTox; source: protocol in the supplementary materials
Nature of the series: ITC; Auto-iTC200, 25°C, 50 mM potassium phosphate, pH 7.4; 10-20 μM protein partner titrated into ~10 μM hAIF_(∆1-101) variant in the CTC state (premixed with NADH at a 1 : 100 ratio); single-ligand binding site model. The following applies: both partners purified.

Series [10] deals with T5, W196Y hAIF_(Δ1-101) (human, UniProt O95831 102-613, W196Y).
T5 construct: FAD holoprotein; 'ox' oxidized, 'CTC' after reduction with NADH; The His6 tag is called cleavable; whether it was cleaved is told only in the supplementary materials; also called W196Yox; W196Y CTC; source: E. coli C41 (DE3), purified to homogeneity (protocol in the supplementary materials)
T5 sequence (O95831 102-613 W196Y): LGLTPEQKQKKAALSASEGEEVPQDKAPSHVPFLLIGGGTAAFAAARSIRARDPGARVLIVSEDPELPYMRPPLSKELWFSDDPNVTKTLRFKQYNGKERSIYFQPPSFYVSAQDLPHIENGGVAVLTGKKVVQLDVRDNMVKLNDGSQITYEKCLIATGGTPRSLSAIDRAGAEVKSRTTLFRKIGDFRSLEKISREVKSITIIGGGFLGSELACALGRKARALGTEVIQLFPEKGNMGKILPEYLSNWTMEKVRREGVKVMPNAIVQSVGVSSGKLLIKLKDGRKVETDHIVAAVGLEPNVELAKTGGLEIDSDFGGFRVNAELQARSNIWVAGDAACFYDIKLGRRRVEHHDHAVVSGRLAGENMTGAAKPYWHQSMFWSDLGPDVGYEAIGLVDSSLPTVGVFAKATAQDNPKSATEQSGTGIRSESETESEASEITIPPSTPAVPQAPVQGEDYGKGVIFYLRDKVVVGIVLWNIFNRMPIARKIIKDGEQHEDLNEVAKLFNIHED
The description is as above. The following applies: both partners purified.

The target in series [11] is T3, W196A hAIF_(Δ1-101). The series is described as above. The conditions noted are these: both partners purified.
The mark [12] stands for this setting: CTC form titrated with CHCHD4, ITC.

T3 sequence (O95831 102-613 W196A): as the sequence (O95831 102-613 W196Y) above, with Y95A counted along it
T4 sequence (O95831 102-613, stated change not applied): as the sequence (O95831 102-613 W196Y) above, with Y95W counted along it

With “WT: wild-type human apoptosis-inducing factor, soluble form hAIF∆1-101 (UniProtKB O95831); ox = oxidized, CTC = NADH-reduced charge transfer complex”, the “K m ^NADH” value in series [1] was 495 ± 170 µM. Besides, the k cat in [1] (n = 3, mean ± SD) is 0.9 ± 0.1 s⁻¹. Also, the “k HT/Kd^NADH” value in series [2] came to 400 ± 100 M⁻¹ s⁻¹. In addition, the “k HT” value in series [2] (hydride transfer from NADH to FAD, aerobic, 50 mM potassium phosphate) amounted to 1.5 ± 0.1 s⁻¹. For the same molecule, the Kd was 4090 ± 300 µM in [2] (transient hAIF∆1-101ox:NADH complex, read-out: K d ^NADH); 2080 ± 250 µM in series [3] (transient hAIF∆1-101phrd:NAD+ complex, read-out: K d ^NAD+); 0.2 µM in series [5] (CTC form (premixed with NADH 1:100) titrated with CHCHD4, ITC, read-out: K d); “heat exchange was not observed; also recorded: No detected binding” in series [5] (oxidized hAIF∆1-101 titrated with CHCHD4, ITC, 50 mM potassium phosphate, listed as WTox); 1.6 µM in [7]. In series [3] (hAIF∆1-101phrd variants mixed with NAD+), the “k CTC” value was determined as 45 ± 2 s⁻¹. In series [3] (hAIF∆1-101phrd variants), the “k CTC/Kd^NAD+” value turned out to be 22000 ± 3000 M⁻¹ s⁻¹. Also, in [4], the “CTC half-life versus reoxidation by O2” value came to 1.2 h. Moreover, the “-TΔS” value is 47.7 kJ/mol in [5] (setting [12]) and 72 kJ/mol in series [6]. Also, the ΔG in [5] (setting [12]) is -36.4 kJ/mol; in series [6] it was -30.5 kJ/mol. In addition, the ΔH is -84.1 kJ/mol in series [5] (setting [12]) and -103 kJ/mol in series [6]. In addition, the “ΔH (unfolding enthalpy)” value runs as follows: (CTC hAIF∆1-101rd:NAD^+, 100-fold excess NADH) 628 ± 17 kJ/mol; (hAIF∆1-101ox, pH 7.4, ionic strength 150 mM) 536 ± 13 kJ/mol. For the same molecule, the “T m CTC ^FAD” value (CTC hAIF∆1-101rd:NAD^+, 100-fold excess NADH, pH 7.4, ionic strength 150 mM) is listed as 324 ± 1 K. Further, where the note is “CTC state relative to oxidized state of the same variant”, the “T m CTC ^FAD − Tm^FAD” value is on record as −13 ± 2 K. The “T m ^FAD” value (hAIF∆1-101ox, ~2 μM protein, 50 mM potassium phosphate, pH 7.4, ionic strength 150 mM) stood at 337 ± 1 K.

B1: human CHCHD4 (coiled-coil-helix-coiled-coil-helix domain containing 4) (natural protein, UniProt Q8N4Q1 1-142, looked up)
chain: T1 sequence (Q8N4Q1 1-142)
notes: human CHCHD4, UniProtKB Q8N4Q1; synthetic codon-optimised cDNA in pET28a (NdeI-NotI); The His6 tag is called cleavable; whether it was cleaved is told only in the supplementary materials; source: E. coli C41 (DE3), purified (protocol in the supplementary materials)
With B1, the Kd was determined as 0.4 µM in series [8], 0.2 µM in series [9], 2.1 µM in series [10] and 0.5 µM in series [11]. Besides, the dH in series [8] was 40.2 kJ/mol; in [9], -84.1 kJ/mol; in [10], -34.3 kJ/mol; in series [11], -24.7 kJ/mol.
